# Patent publication US20230279089A1 (GlaxoSmithKline, published 2023)
# Where “and” joins values, the source holds several entries; their conditions need not be identical. Equal values may be shown once.
# T1: Human BMP1 CD+CUB1 truncated antigen (human, UniProt P13497 121-434, limits assumed)
# T1 construct: domain: CD+CUB1
# T1 sequence (looked up): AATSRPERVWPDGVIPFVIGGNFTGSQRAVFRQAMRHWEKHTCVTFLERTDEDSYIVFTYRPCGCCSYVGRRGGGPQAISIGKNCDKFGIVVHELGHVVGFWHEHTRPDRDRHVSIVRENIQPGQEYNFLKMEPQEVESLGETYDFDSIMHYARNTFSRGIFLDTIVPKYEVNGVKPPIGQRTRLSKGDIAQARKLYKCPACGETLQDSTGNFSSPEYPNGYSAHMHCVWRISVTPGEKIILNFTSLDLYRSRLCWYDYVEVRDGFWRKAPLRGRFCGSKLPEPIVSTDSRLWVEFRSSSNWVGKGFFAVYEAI
# T2: Human TLL2 CD+CUB1 truncated antigen (human, UniProt Q9Y6L7 150-463, limits assumed)
# T2 construct: domain: CD+CUB1
# T2 sequence (looked up): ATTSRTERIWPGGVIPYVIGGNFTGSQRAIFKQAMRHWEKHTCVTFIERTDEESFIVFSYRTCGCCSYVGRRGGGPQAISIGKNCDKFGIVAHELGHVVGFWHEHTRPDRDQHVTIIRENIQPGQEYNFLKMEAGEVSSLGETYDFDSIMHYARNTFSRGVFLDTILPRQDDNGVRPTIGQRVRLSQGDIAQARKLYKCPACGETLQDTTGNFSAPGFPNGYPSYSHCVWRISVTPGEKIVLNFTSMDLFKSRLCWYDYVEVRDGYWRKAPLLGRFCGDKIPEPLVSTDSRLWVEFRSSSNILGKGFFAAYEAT
# T3: Mouse BMP1 CD+CUB1 truncated antigen (mouse, UniProt P98063 126-439, limits assumed)
# T3 construct: domain: CD+CUB1
# T3 sequence (looked up): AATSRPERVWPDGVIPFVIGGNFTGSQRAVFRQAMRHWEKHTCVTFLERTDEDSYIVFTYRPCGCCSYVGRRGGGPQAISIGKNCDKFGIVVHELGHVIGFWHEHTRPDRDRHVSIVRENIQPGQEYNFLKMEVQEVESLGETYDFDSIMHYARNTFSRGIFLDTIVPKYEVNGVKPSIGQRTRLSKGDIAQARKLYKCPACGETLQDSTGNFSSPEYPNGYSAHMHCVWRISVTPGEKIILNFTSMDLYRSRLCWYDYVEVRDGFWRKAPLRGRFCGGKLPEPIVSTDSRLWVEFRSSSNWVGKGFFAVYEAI
# T4: Human BMP1-1 (human, UniProt P13497-2 121-730, limits assumed)
# T4 sequence (looked up): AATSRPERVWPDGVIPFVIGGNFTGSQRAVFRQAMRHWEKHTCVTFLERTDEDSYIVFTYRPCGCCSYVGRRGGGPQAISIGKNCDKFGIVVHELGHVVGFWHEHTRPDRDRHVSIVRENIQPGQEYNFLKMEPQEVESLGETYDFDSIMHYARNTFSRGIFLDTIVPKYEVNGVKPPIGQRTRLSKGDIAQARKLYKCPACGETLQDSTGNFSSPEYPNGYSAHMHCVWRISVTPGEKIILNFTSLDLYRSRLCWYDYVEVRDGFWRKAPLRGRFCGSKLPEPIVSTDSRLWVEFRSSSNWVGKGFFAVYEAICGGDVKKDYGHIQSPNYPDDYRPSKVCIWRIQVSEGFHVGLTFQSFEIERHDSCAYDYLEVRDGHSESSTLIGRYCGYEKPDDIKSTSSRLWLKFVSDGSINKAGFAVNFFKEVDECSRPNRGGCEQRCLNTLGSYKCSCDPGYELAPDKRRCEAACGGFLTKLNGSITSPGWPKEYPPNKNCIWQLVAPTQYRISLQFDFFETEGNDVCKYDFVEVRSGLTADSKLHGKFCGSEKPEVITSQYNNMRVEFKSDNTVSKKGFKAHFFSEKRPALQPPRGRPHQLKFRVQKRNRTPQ
# T5: Mouse BMP1-3: 126-707 (mouse, UniProt P98063 126-707)
# T5 sequence (looked up): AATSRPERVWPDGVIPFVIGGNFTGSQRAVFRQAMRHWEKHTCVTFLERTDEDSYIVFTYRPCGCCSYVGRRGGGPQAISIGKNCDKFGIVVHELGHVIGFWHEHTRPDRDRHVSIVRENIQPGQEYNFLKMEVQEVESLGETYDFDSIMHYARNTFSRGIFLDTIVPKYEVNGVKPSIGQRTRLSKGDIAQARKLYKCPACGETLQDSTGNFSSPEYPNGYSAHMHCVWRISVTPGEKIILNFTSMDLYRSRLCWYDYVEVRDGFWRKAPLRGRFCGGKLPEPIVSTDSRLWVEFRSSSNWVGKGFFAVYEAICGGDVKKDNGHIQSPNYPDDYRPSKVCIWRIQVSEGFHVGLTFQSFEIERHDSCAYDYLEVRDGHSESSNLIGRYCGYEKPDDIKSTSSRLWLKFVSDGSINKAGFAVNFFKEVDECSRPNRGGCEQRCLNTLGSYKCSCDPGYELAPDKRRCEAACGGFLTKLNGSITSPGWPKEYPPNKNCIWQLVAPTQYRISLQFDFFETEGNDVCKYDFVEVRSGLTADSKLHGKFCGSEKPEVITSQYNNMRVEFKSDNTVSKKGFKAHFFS
# Assays:
# [1] = target: T1, Human BMP1 CD+CUB1 truncated antigen; experiment: SPR, captured mAb, HBS-EP
# [2] = target: T2, Human TLL2 CD+CUB1 truncated antigen; experiment: SPR, captured mAb, HBS-EP
# Method: (§1) Both antibodies 13Y039-4B06-4334 and 13Y039-3E07-2944 and the reverse chimeric antibodies were evaluated for binding to human TLL2 CD+CUB1 and mouse BMP1 CD+CUB1 truncated antigens by SPR on a BIACORE T200. Protein A/G was immobilised to a CM5 sensor chip via amine coupling and the antibodies were captured to the protein A/G surface. The antigens were passed over the captured antibody at various concentrations. The measured affinities to human TLL2 CD+CUB1 are shown in Table 2 and the measured affinities to mouse BMP1 CD+CUB1 are shown in Table 3.
# [3] = target: T3, Mouse BMP1 CD+CUB1 truncated antigen; experiment: SPR, captured mAb, HBS-EP
# Method: as §1
# [4] = target: T1, Human BMP1 CD+CUB1 truncated antigen; experiment: SPR, captured mAb, enzyme dilution buffer
# Human BMP1-1 = target: T4, Human BMP1-1; experiment: cell-based or functional assay
# Mouse BMP1-3: 126-707 = target: T5, Mouse BMP1-3: 126-707; experiment: cell-based or functional assay
Kd [1] [nM],binding result [2],Kd [3],Kd [4] [nM],"pKi, app, FRET enzyme activity, Human BMP1 (Human BMP1-1)","pKi, app, FRET enzyme activity, Mouse BMP1 (Mouse BMP1-3: 126-707)",Binder
5.31,no binding,2.66 nM and 6.2 nM,0.07,–,–,"13Y039-3E07-2944 human variable region on mouse IgG2a LAGA Fc, mouse cKappa (Compound B) (antibody, Reverse chimera; also called 13Y039-3E07-2944, mIgG2a LAGA) heavy: QVQLQQWGAGLLKPSETLSLTCAVYGGSFFGDYWSWIRQPPGKGLEWIGEIDWSGATNYNPSLKSRVTISVDTSKNQFSLKLSSVTAADTAVYYCARGGSKELSFDIWGQGTMVTVSSAKTTAPSVYPLAPVCGDTTGSSVTLGCLVKGYFPEPVTLTWNSGSLSSGVHTFPAVLQSDLYTLSSSVTVTSSTWPSQSITCNVAHPASSTKVDKKIEPRGPTIKPCPPCKCPAPNLAGAPSVFIFPPKIKDVLMISLSPIVTCVVVDVSEDDPDVQISWFVNNVEVHTAQTQTHREDYNSTLRVVSALPIQHQDWMSGKEFKCKVNNKDLPAPIERTISKPKGSVRAPQVYVLPPPEEEMTKKQVTLTCMVTDFMPEDIYVEWTNNGKTELNYKNTEPVLDSDGSYFMYSKLRVEKKNWVERNSYSCSVVHEGLHNHHTTKSFSRTPGK light: DIQMTQSPSSLSASVGDRVTITCQASQDIANYLNWYQQKPGKAPKLLIYDASNLETGVPSRFSGSGSGTDFTFTISSLQPEDIATYYCQQADTLPFTFGGGTKVEIKRADAAPTVSIFPPSSEQLTSGGASVVCFLNNFYPKDINVKWKIDGSERQNGVLNSWTDQDSKDSTYSMSSTLTLTKDEYERHNSYTCEATHKTSTSPIVKSFNRNEC"
–,–,–,–,11.8,11.3,13Y039-4B06-4334 human variable region on rat IgG2b LAGA Fc and rat Kappa (Compound C) (antibody) heavy: QVQLVQSGAEVKKPGASVKVSCKASGYTFLGYYMSWVRQAPGQGLEWMGWINPLSGETNYAQKFQGRVTMTRDTSISTAYMELSRLRSDDTAVYYCARDTGELDGMNWYFDLWGRGTLVTVSSAQTTAPSVYPLAPGCGDTTSSTVTLGCLVKGYFPEPVTVTWNSGALSSDVHTFPAVLQSGLYTLTSSVTSSTWPSQTVTCNVAHPASSTKVDKKVERRNGGIGHKCPTCPTCHKCPVPELAGAPSVFIFPPKPKDILLISQNAKVTCVVVDVSEEEPDVQFSWFVNNVEVHTAQTQPREEQYNSTFRVVSALPIQHQDWMSGKEFKCKVNNKALPSPIEKTISKPKGLVRKPQVYVMGPPTEQLTEQTVSLTCLTSGFLPNDIGVEWTSNGHIEKNYKNTEPVMDSDGSFFMYSKLNVERSRWDSRAPFVCSVVHEGLHNHHVEKSISRPPGK light: EIVLTQSPATLSLSPGERATLSCRASQSVSSYLAWYQQKPGQAPRLLIYDASNRATGIPARFSGSGSGTDFTLTISSLEPEDFAVYYCQQSDSWPPTFGGGTKVEIKRADAAPTVSIFPPSTEQLATGGASVVCLMNNFYPRDISVKWKIDGTERRDGVLDSVTDQDSKDSTYSMSSTLSLTKADYESHNLYTCEVVHKTSSSPVVKSFNRNEC
